Data reported in patent US11090322B2, “Anthracycline disulfide intermediates, antibody-drug conjugates and methods” (priority 2014, dated 2021).

B1: ADC-110 (conjugate)
VH: QVQLVQSGAEVKKPGSSVKVSCKASGGIFSNHAISWVRQAPGQGLEWMGGIIPIFGTANYAQKFQGRVTITADESTSTAFMELSSLRSEDTAVYYCAREWADVFDIWGQGTMVTVSS
VL: EIVLTQSPLSLPVTPGEPASISCRSSQSLLHSNGYNYLDWYLQKPGQSPQLLIYLGVNSVSGVPDRFSGSGSGTDFTLKISRVEAEDVGVYYCMQALQTPWTFGQGTKVEIK

Experiments:
[1] = cited from earlier work
tumor models = conditions: cited from earlier work
[2] = tested on: MMTV-HER2 Fo5 transgenic mammary tumors; test: In vivo tumor growth inhibition, MMTV-HER2 Fo5 transgenic mammary tumor allograft; set-up: species or system CRL nu/nu mice; conditions: FIG. 5
Method: For example, the in vivo efficacy of an anti-HER2 ADC of the invention can be measured by a high expressing HER2 transgenic explant mouse model (Phillips et al (2008) Cancer Res. 68:9280-90). […] Subjects were treated once with ADC at certain dose levels (mg/kg) and placebo buffer control (Vehicle) and monitored over two weeks or more to measure the time to tumor doubling, log cell kill, and tumor shrinkage.
(§1) Tumors were established and allowed to grow to 150-200 mm^3 in volume (as measured using calipers) before a single treatment on day 0. Tumor volume was measured using calipers according to the formula: V (mm^3)=0.5A×B^2, where A and B are the long and short diameters, respectively. […] Data collected from each experimental group (10 mice per group) were expressed as mean±SE.
The Fo5 mouse mammary tumor model was employed to evaluate the in vivo efficacy of antibody-drug conjugates of the invention after single dose intravenous injections, and as described previously (Phillips G D L, Li G M, Dugger D L, et al. Targeting HER2-Positive Breast Cancer with Trastuzumab-DM1, an Antibody-Cytotoxic Drug Conjugate. (2008) Cancer Res. 68:9280-90), incorporated by reference herein. […]

KPL4 tumor model = test: In vivo tumor growth inhibition, KPL4 tumor model; set-up: species or system scid beige mice; conditions: single IV treatment Day 0 at 3 mg/kg; non specific anti-CD33 controls; FIG. 4
Method: When tumors reached a mean tumor volume of 100-250 mm3, they were grouped into 9 groups of 8-10 mice each. A single treatment was administered intravenously via the tail vein on Day 0 as follows: (01) Vehicle: Histidine Buffer #8: 20 mM Histidine Acetate, pH 5.5, 240 mM Sucrose, 0.02% PS 20, (02) Thio Hu anti-Her2 7C2 LC K149C-(ethylmaleimide) 0.3 mg/kg 138, (03) Thio Hu anti-Her2 7C2 LC K149C-(ethylmaleimide) 1 mg/kg 138, (04) Thio Hu anti-Her2 7C2 LC K149C-(ethylmaleimide) 3 mg/kg 138, (05) Thio Hu anti-Her2 7C2 LC K149C-(LD-57) 0.3 mg/kg 109, (06) Thio Hu anti-Her2 7C2 LC K149C-(LD-57) 1 mg/kg 109, (07) Thio Hu anti-Her2 7C2 LC K149C-(LD-57) 3 mg/kg 109, (08) Thio Hu Anti-CD33 15G15.3 LC K149C-(ethylmaleimide) 3 mg/kg 139, and (09) Thio Hu anti-CD33 15G15.3 LC K149C-(LD-57) 3 mg/kg 110.
as §1

SK-BR-3 cells = test: In vitro cell proliferation assay (CellTiter-Glo), SK-BR-3 cell viability at 5 days; assay type: cell-based; conditions: SK-BR-3, 5 days, concentrations in μg/ml; FIG. 1 and FIG. 2
Method: Generally, the cytotoxic or cytostatic activity of an antibody-drug conjugate (ADC) is measured by: exposing mammalian cells having receptor proteins, e.g. HER2, to the antibody of the ADC in a cell culture medium; culturing the cells for a period from about 6 hours to about 5 days; and measuring cell viability. Cell-based in vitro assays were used to measure viability (proliferation), cytotoxicity, and induction of apoptosis (caspase activation) of the ADC of the invention.
The CellTiter-Glo® Luminescent Cell Viability Assay is a commercially available (Promega Corp., Madison, Wis.), homogeneous assay method based on the recombinant expression of Coleoptera luciferase (U.S. Pat. Nos. 5,583,024; 5,674,713; 5,700,670). This cell proliferation assay determines the number of viable cells in culture based on quantitation of the ATP present, an indicator of metabolically active cells (Crouch et al (1993) J. Immunol. Meth. 160:81-88; U.S. Pat. No. 6,602,677). […]
The homogeneous “add-mix-measure” format results in cell lysis and generation of a luminescent signal proportional to the amount of ATP present. […] Viable cells are reflected in relative luminescence units (RLU). […]
Efficacy of ADC was measured by a cell proliferation assay employing the following protocol ([…] GLO™ Luminescent Cell Viability Assay, Promega Corp. Technical Bulletin TB288; Mendoza et al (2002) Cancer Res. 62:5485-5488): • 1. […]

Molecule	cytotoxicity in vitro relative to nemorubicin and doxorubicin [1]	efficacy in vivo tumor models (tumor models)	tumor growth inhibition ([2]; dosing once IV at 1 mg/kg)	tumor growth inhibition ([2]; dosing once IV at 3 mg/kg)	tumor growth inhibition (KPL4 tumor model)	cell-killing activity (in vitro cell viability versus concentration) (SK-BR-3 cells)
COc1cccc2c1C(=O)c1c(O)c3c(c(O)c1C2=O)C[C@@](O)(C(=O)CO)C[C@@H]3O[C@H]1C[C@H]2[C@H](O[C@@H]3[C@@H](OC)OCCN32)[C@H](C)O1 [PNU-159682, 3′-deamino-3″,4′-anhydro-[2″(S)-methoxy-3″(R)-oxy-4″-morpholinyl]doxorubicin]	remarkably more cytotoxic than nemorubicin and doxorubicin	effective	–	–	–	–
B1	–	–	little tumor growth inhibition	modest tumor growth inhibition	little or no tumor growth inhibition	less activity
